The values that follow come from WO2008021263A2.

The target of assay [1] is SDF-1α (stromal cell-derived factor-1 alpha) (Felis catus (Cat) (Felis silvestris catus)) (UniProt O62657). The assay is described as follows: SPR, Fab (about 1250 RU) on anti-CH1 chip, saturating SDF-1α (Figure 5: 1D3).
For assay [2] the target is unchanged. Description: SPR, calculated as (RU SDF-1α/RU Fab)*(M.Wt Fab/M.Wt SDF-1α), Fab on anti-CH1 chip (Figure 5: 1D3).

Chain of SDF-1α (stromal cell-derived factor-1 alpha) (Felis catus (Cat) (Felis silvestris catus)) (O62657 22-89 limits assumed): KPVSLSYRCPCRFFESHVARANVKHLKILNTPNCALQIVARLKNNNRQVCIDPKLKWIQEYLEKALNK

B1: 1D3 Fab (Fab, V domains shown)
VH: EVQLVQSGAEVKKPGASVKVSCKVSGYTLTKLSVHWVRQAPGKGLEWMGSFDPEDGETIYSQRFQGRVTMTEDTSTDTAYMELTSLRSEDTAVYYCATEGQWLVAYYGMDVWGQGTTVTVSS
VL: EIVLTQSPSSLSASVGDRVTITCRASQGISSALAWYQQKPGKAPKLLIYDASSLESGVPSRFSGSGSGTDFTLTISSLQPEDFATYYCQQFNSYPLTFGGGTKVEIK
B1 displayed an RUSDF-1α (response units of SDF-1α bound) in assay [1] of 350 RU. In addition, the stoichiometry (molecules of SDF-1α bound per Fab molecule) (molecules of SDF-1α per Fab molecule) in assay [2] is 1.75.
